These results are taken from US7572895B2, “Transferrin receptor antibodies” (Raven Biotechnologies, Inc., priority 2004, dated 2009).

The target of experiment [1] is human transferrin receptor, full length, on cells (human) (UniProt P02786). Put plainly: cell-based or functional assay.
For the next experiment, the system named is HCT15 tumor xenograft. Put plainly: Established HCT15 tumor xenograft model. It counts as in vivo, mice. The conditions noted are these: antibody 500 ug twice weekly for four weeks; gemcitabine 120 mg/kg q3d ×2. As for the experimental part: For each experimental group, data is plotted until the first animal presents with a tumor greater than 1000 mm^3.
LUCA31 was particularly active in blocking the proliferation of the colon carcinoma cell line HCT15. […] In this study, groups of 15 mice were treated twice weekly with 500 ug of antibody for four weeks. Gemcitabine was dosed on a q3d ×2 schedule at 120 mg/kg, which is near the MTD. Treatment was initiated when tumor volumes averaged 70 mm^3. In FIG. 16A, the median tumor volumes are shown and in FIG. 16B, the mean tumor volumes with error bars are presented. In this experiment, the LUCA31 antibody produced a tumor growth delay of greater than 14 days, relative to the saline control. Gemcitabine produced a 20-day tumor growth delay and the combination of LUCA31 and gemcitabine produced a tumor growth delay of 18 days relative to gemcitabine alone.

Sequence of UniProt P02786 (P02786 whole entry): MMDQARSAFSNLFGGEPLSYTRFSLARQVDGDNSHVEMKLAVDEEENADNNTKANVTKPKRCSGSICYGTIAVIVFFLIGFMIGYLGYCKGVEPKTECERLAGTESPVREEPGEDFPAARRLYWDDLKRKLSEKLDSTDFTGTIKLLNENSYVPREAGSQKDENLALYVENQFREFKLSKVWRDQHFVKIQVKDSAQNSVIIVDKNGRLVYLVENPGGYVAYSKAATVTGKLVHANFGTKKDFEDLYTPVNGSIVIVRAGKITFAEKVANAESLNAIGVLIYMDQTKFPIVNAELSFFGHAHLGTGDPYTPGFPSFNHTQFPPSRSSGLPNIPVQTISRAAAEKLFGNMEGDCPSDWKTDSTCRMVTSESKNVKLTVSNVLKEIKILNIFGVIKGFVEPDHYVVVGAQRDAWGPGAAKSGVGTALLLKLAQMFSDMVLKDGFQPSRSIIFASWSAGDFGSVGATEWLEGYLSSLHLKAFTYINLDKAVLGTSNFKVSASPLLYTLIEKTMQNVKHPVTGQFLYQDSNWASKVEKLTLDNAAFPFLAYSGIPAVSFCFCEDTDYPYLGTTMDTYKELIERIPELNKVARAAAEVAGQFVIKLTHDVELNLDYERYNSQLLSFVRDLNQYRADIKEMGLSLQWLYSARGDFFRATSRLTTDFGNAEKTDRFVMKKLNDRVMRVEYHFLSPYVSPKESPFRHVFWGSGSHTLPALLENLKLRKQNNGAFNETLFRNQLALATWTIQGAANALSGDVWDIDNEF

As to “LUCA31 monoclonal antibody (mouse anti-human transferrin receptor antibody produced by hybridoma CA130.3.13C9.1A7, ATCC PTA-6055)”, in experiment [1], the Maximum inhibition (% inhibition) of cell proliferation, Calu6 cells was determined as 25%; the Maximum inhibition (% inhibition) of cell proliferation, Colo205 cells is 25%; the Maximum inhibition (% inhibition) of cell proliferation, LS174T cells was found to be 35%; the Maximum inhibition (% inhibition) of cell proliferation, SW48 cells was determined as 35%. Besides, in experiment [1], the growth inhibition (MTT), 786-O cells, LUCA31 at 20 ug/ml turned out to be 54%; the growth inhibition (MTT), Colo205 cells, LUCA31 at 20 ug/ml was found to be 37%; the growth inhibition (MTT), MDA-MB-175VII cells, LUCA31 at 20 ug/ml amounted to 35%; the growth inhibition (MTT), SKMES-1 cells, LUCA31 at 20 ug/ml is 45%. This compound registered a maximum inhibition of cell proliferation (tritiated thymidine incorporation), Calu-6 cells in experiment [1] of 45%.

Regarding transferrin receptor antibody 42/6, in experiment [1], the Maximum inhibition (% inhibition) of cell proliferation, Calu6 cells worked out at 0%; the Maximum inhibition (% inhibition) of cell proliferation, Colo205 cells stood at 25%; the Maximum inhibition (% inhibition) of cell proliferation, SW48 cells is 0%.

Consider `Nc1ccn([C@@H]2O[C@H](CO)[C@@H](O)C2(F)F)c(=O)n1` [Gemcitabine, gemcitabine], for which, in the experiment with HCT15 tumor xenograft, the “tumor growth delay relative to the saline control” value was found to be 20 days.
